Measurements published in paper PMC10572825.

Target: CXCL12 (Homo sapiens) (UniProt P48061)
Test: isothermal fluorescence titration
Details: FITC-labelled tenascin-C

Chain of CXCL12 (Homo sapiens) (P48061 22-89): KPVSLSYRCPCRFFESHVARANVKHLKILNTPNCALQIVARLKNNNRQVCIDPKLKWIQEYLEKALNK

Work on Tenascin-C, Q80YX1 yielded a Kd of 1.01 µM.
